Source: patent US20020076719A1 (ROCKEFELLER UNIVERSITY, published 2002)
One block for each binder: values may come before it.

What was measured:
[1] = target: T1, hTRF2 dimerization domain (amino acid 45 to amino acid 246), LexA and GAD fusion proteins (human, UniProt Q15554 87-288); assay: yeast 2-hybrid, b-galactosidase activity
T1 construct: Built both as a LexA and as a GAD fusion; also called dimerization domain of hTRF2; not shown: two-hybrid fusion partner, LexA or GAD depending on the construct (vectors pBTM116 and pACT2)
T1 sequence: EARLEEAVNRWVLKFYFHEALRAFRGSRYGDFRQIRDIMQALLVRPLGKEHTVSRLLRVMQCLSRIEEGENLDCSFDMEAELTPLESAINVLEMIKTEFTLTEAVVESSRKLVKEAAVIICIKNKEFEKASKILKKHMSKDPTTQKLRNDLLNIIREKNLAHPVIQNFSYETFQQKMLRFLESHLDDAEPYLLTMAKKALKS
Text: (§1) FIG. 12: TRF2 interacts with TRF2 but not with TRF1. […] Values represent an average of three to nine independent transformants. FIG. 12B depicts in vitro translated ³⁵S-methionine labelled TRF1 and TRF2 proteins with or without an N-terminal FLAG tag (indicated above the lanes) were immunoprecipitated using the M2 anti-FLAG antibodies and analyzed by autoradiography.
Next the yeast 2-hybrid assay was used to determine whether the dimerization domains of TRF1 and TRF2 can interact. In a large number of trials, no convincing interactions between these proteins in two settings were detected (FIG. 12A). No activation occurred when the dimerization domain of TRF2 was probed for interactions with full length TRF1. In addition, no significant interactions were observed between fusion proteins containing the isolated TRF1 and TRF2 dimerization domains. The weak b-galactosidase activity detected with these proteins is probably due to the inherent slight transactivation activity of the TRF1 dimerization domain (FIG. 12A) which has been noted previously [Bianchi et al., supra, (1997)].

untagged mTRF2 = target: T2, untagged mTRF2 (mouse, UniProt O35144 46-541, limits assumed); assay: co-immunoprecipitation of in vitro translated 35S-labelled proteins with M2 anti-FLAG antibody
T2 construct: In vitro translated and 35S-methionine labelled; also called mouse TRF2
T2 sequence: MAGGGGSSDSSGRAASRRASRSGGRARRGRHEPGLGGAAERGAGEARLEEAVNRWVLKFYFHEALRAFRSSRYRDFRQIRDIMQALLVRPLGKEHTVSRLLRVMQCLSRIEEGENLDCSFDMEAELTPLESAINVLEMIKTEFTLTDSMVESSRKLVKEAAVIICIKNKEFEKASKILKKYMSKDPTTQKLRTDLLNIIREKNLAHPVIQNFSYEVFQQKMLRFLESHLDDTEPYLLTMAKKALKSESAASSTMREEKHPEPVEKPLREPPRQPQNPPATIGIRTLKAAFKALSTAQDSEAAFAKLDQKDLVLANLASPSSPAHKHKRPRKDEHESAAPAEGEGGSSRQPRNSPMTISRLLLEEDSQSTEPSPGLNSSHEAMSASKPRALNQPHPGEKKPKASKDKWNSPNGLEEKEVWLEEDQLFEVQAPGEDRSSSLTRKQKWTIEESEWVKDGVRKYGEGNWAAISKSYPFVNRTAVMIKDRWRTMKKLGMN
Text: as §1
Co-immunoprecipitation experiments. The human and mouse TRF1 constructs used were previously described [Chong et al., Science, 270:1663-1667 (1995); Broccoli et al., Hum. Mol. Genetics, 6:69-76 (1997); Bianchi et al., supra (1997)]. The FLAG-tagged mTRF2 and untagged mTRF2 were translated from cDNAs described above. ³⁵S-methionine labelled proteins [Chong et al., Science, 270:1663-1667 (1995); Broccoli et al., Hum. Mol. Genetics, 6:69-76 (1997); Bianchi et al., supra, (1997)] were immunoprecipitated using the M2 anti-FLAG antibody in buffer D (20 mM Hepes-KOH pH 7.9, 100 mM KCl, 20% glycerol, 0.2 mM EDTA, 0.2 mM EGTA, 0.1 % NP40, 0.1 % Triton-X-100, 0.5 mM DTT, 0.5 mM PMSF) followed by four washes in buffer D with detergents and two washes in buffer D without detergent. Pellets were suspended in SDS/PAGE loading buffer and resolved on a 9% SDS-polyacrylamide gel.

FLAG-tagged mTRF2ΔN-49 = target: T3, FLAG-tagged mTRF2ΔN-49 (mouse, UniProt O35144 94-541); assay: gel-shift assay on extracts of transfected HeLa cells; level of the hTRF1 homodimer complex unaltered
T3 construct: also called mTRF2 DN-49; deletion mutant mTRF2ΔN-49
T3 sequence: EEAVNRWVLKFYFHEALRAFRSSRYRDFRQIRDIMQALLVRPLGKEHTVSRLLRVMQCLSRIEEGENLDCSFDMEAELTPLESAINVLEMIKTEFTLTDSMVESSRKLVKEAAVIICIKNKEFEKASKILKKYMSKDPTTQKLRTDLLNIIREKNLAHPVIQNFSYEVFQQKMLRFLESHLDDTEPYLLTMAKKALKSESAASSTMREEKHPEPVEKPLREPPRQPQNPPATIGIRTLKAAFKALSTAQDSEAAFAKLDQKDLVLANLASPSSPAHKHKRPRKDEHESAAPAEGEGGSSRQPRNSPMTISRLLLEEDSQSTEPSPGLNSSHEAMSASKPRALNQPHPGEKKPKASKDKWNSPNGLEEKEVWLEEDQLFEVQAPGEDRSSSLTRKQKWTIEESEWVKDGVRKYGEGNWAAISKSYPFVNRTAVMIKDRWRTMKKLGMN
Text: This new activity was present in excess over the endogenous hTRF1 activity and could be super-shifted with the FLAG antibody (FIG. 10B, lane 4). The mTRF2ΔN-49 mutant protein was also found to localize to telomeric loci in transfected cells (see below). […] Acids Res., 24:1294-303 (1996)].
Absence of heterodimer formation was further corroborated by co-immunoprecipitation of in vitro translation products (FIG. 12B). […] The lack of heterodimerization is also consistent with the gel-shift assays on extracts from cells over-expressing mTRF2ΔN-49 (FIG. 10B). […] In similar experiments executed with FLAG-tagged hTRF 1, heterodimerization between the endogenous TRF1 and the transfected protein is consistently detected.

- binding result [1]: no binding
B1: hTRF1 dimerization domain, LexA and GAD fusion proteins (other)
chain: LVAEAEAVAAGWMLDFLCLSLCRAFRDGRSEDFRRTRNSAEAIIHGLSSLTACQLRTIYICQFLTRIAAGKTLDAQFENDERITPLESALMIWGSIEKEHDKLHEEIQNLIKIQAIAVCMENGNFKEAEEVFERIFGDPNSHMPFKSKLLMIISQKDTFHSFFQHFSYNHMMEKIKSYVNYVLSEKSSTFLMKAAAKV
notes: also called isolated TRF1 dimerization domain; homodimerization domain of TRF1; not shown: two-hybrid fusion partner, LexA or GAD

- binding result (untagged mTRF2): no binding
B2: FLAG-mTRF1 (mouse TRF) (other, UniProt P70371 2-421, looked up)
chain: AETVSSAARDAPSREGWTDSDSPEQEEVGDDAELLQCQLQLGTPREMENAELVAEVEAVAAGWMLDFLCLSLCRAFRDGRSEDFRRTRDSAEAIIHGLHRLTAYQLKTVYICQFLTRVASGKALDAQFEVDERITPLESALMIWNSIEKEHDKLHDEIKNLIKIQAVAVCMEIGSFKEAEEVFERIFGDPEFYTPLERKLLKIISQKDVFHSLFQHFSYSCMMEKIQSYVGDVLSEKSSTFLMKAATKVVENEKARTQASKDRPDATNTGMDTEVGLNKEKSVNGQQSTETEPLVDTVSSIRSHKNALSQLKHRRAPSDFSRNEARTGTLQCETTMERNRRTSGRNRLCVSENQPDTDDKSGRRKRQTWLWEEDRILKCGVKKYGEGNWAKILSHYKFNNRTSVMLKDRWRTMKRLKLIS
notes: The co-IP construct is 'previously described'; also called FLAG tagged mouse TRF; not shown: FLAG tag

- binding result (FLAG-tagged mTRF2ΔN-49): no binding
B3: hTRF1 (endogenous, HeLa cells) (other)
chain: AEDVSSAAPSPRRCADGRDADPTEEQMAETERNDEEQFECQELLECQVQVGAPEEEEEEEEDAGLVAEAEAVAAGWMLDFLCLSLCRAFRDGRSEDFRRTRNSAEAIIHGLSSLTACQLRTIYICQFLTRIAAGKTLDAQFENDERITPLESALMIWGSIEKEHDKLHEEIQNLIKIQAIAVCMENGNFKEAEEVFERIFGDPNSHMPFKSKLLMIISQKDTFHSFFQHFSYNHMMEKIKSYVNYVLSEKSSTFLMKAAAKVVESKRTRTITSQDKPSGNDVEMETEANLDTRKSVSDKQSAVTESSEGTVSLLRSHKNLFLSKLQHGTQQQDLNKKERRVGTPQSTKKKKESRRATESRIPVSKSQPVTPEKHRARKRQAWLWEEDKNLRSGVRKYGEGNWSKILLHYKFNNRTSVMLKDRWRTMKKLKLISSDSED
notes: also called endogenous TRF1; human TRF1
